The source of these data is the DeepSol protein solubility set.

This data set in a line: soluble on expression in E. coli; label from the status in PepcDB or PDB records.
For the sequence “MGSDKIHHHHHHMALLEVHNLNKRFTDHISLFHKQRFYAVKNISFNLNEGETIAIIGENGAGKSTLAKMIAGITKPTSGDMFFRYKKLTYGDYQFRTKHIRMMFQDPNHTFNPNHNIGQILDAPLRLATDMNEQERNECIFNTLKLVGMYPEYALIPIKETSTSQKQRIALARALILSPEIIIADDTLSTLDFSVKTQLTNLMLNLQEKLGIAFIYVGQHLGIIKHIADKLIIMHQGEAIEYGDTKEVLLNPQNPITARLIESHFGKMLTEDAWAK”, the “soluble on expression in E. coli” value is “not soluble”.
Consider “MRQHAAPCTQLITWSIEMDNALDFLLEQAQESEDKAVLALSKARSELDSYYHQLRQIEQYRLEYCQQLVERGKSGLTASQYGHLNRFLTQLDETLAKQKSAEQHFRLQVENCEQHWMNMRQKRKSYQWLMEKKQTERQLLQEKREQKQMDEFSTLMFNRRRLSS”, for which the “soluble on expression in E. coli” value was “not soluble”.
With “MKKVLIANRGEIAVRIIRACRDLGIQTVAIYSEGDKDALHTQIADEAYCVGPTLSKDSYLNIPNILSIATSTGCDGVHPGYGFLAENADFAELCEACQLKFIGPSYQSIQKMGIKDVAKAEMIKANVPVVPGSDGLMKDVSEAKKIAKKIGYPVIIKATAGGGGKGIRVARDEKELETGFRMTEQEAQTAFGNGGLYMEKFIENFRHIEIQIVGDSYGNVIHLGERDCTIQRRMQKLVEEAPSPILDDETRREMGNAAVRAAKAVNYENAGTIEFIYDLNDNKFYFMEMNTRIQVEHPVTEMVTGIDLVKLQLQVAMGDVLPYKQEDIKLTGHAIEFRINAENPYKNFMPSPGKIEQYLAPGGYGVRIESACYTNYTIPPYYDSMVAKLIIHEPTRDEAIMAGIRALSEFVVLGIDTTIPFHIKLLNNDIFRSGKFNTNFLEQNSIMNDEG”, the “soluble on expression in E. coli” value is “soluble”.
As to “MAELACFCYPHLENDSYKFIPFNNLAIKAMLTAKVDKKDMDKFYDSIIYGIAPPPQFKKRYNTNDNSRGMNFETIMFTKVAMLICEALNSLKVTQANVSNVLSRVVSIRHLENLVIRKENPQDILFHSKDLLLKSTLIAIGQSKEIETTITAEGGEIVFQNAAFTMWKLTYLEHQLMPILDQNFIEYKVTLNEDKPISDVHVKELVAELRWQYNKFAVITHGKGHYRIVKYSSVANHADRVYATFKSNVKTGVNNDFNLLDQRIIWQNWYAFTSSMKQGNTLDVCKRLLFQKMKPEKNPFKGLSTDRKMDEVSQVGV”, the “soluble on expression in E. coli” value is reported as “soluble”.
Turning to “MAHQTGIHATEELKEFFAKARAGSVRLIKVVIEDEQLVLGASQEPVGRWDQDYDRAVLPLLDAQQPCYLLYRLDSQNAQGFEWLFLAWSPDNSPVRLKMLYAATRATVKKEFGGGHIKDELFGTVKDDLSFAGYQKHLSSCAAPAPLTSAERELQQIRINEVKTEISVESKHQTLQGLAFPLQPEAQRALQQLKQKMVNYIQMKLDLERETIELVHTEPTDVAQLPSRVPRDAARYHFFLYKHTHEGDPLESVVFIYSMPGYKCSIKERMLYSSCKSRLLDSVEQDFHLEIAKKIEIGDGAELTAEFLYDEVHPKQHAFKQAFAKPKGPGGKRGHKRLIRGPGENGDDS”, the “soluble on expression in E. coli” value is “soluble”.
For “MLCHTLISSFNNHIWRFLIMENKMNDNRVPRERVAILIDSGCDVTEELIRQYNMKLLRLHVIYPEKDYSDDLDISPQTVYERFPGEIPHTSTPSPQEVKDMADELKREGYTHVLAFAISSGLSGTYNTMCSVLNEEEELTSFVLDTRNISFGSGVLAVWAAQKLEEGMPYEELVRLLPGKVQDSKILYYMDTLTYLQKGGRIGLVTSIVGNILNLKPIISCNCEGVYYTVAKIRGSKQGMTKLLAEAKDFAGDGPVWFSLLNGNAAAASNEMLKRITEALPEGKHLLSKQIAASLAVHTGPGLLGIGILKNP”, the “soluble on expression in E. coli” value was “not soluble”.
The same measure for “MAHHHHHHMGTMGASNDVTDVDDENLLSEELQSSSTGSWSSMGDLQTTESAESDAPSEESDPDERVRRATASFLQWKNKEYVPLSLDEKRAIKEYRKMVAQEEGSYTSTRAQRQRDRAPKLFISREDDWVDLGSPAEGDGLARRRSRKIRFVAAVIASKEVDVHNDGLVVLTDAGEEVPELPRSASILRMSCVKNLTEEAPVFVDDLNSCMMEDEGRSCESAVRWEFPR”: “soluble”; for “MGHHHHHHHHHHSSGHIEGRHMAAVTLHLRAETKPLEARAALTPTTVKKLIAKGFKIYVEDSPQSTFNINEYRQAGAIIVPAGSWKTAPRDRIIIGLKEMPETDTFPLVHEHIQFAHCYKDQAGWQNVLMRFIKGHGTLYDLEFLENDQGRRVAAFGFYAGFAGAALGVRDWAFKQTHSDDEDLPAVSPYPNEKALVKDVTKDYKEALATGARKPTVLIIGALGRCGSGAIDLLHKVGIPDANILKWDIKETSRGGPFDEIPQADIFINCIYLSKPIAPFTNMEKLNNPNRRLRTVVDVSADTTNPHNPIPIYTVATVFNKPTVLVPTTAGPKLSVISIDHLPSLLPREASEFFSHDLLPSLELLPQRKTAPVWVRAKKLFDRHCARVKRSSRL”: “soluble”; for “MGRKSQRKNATMFDSDDDTSSVSSSSTMPSERLLNPGMDEVTVLKDALLDQSLDALYEKREQALATIVDAFNSDLQYEFVEKKFATLLHQCLHCTKKGSTKETSLATHVIGLLALTVGLGDHAQEVLEESVTPLSQALKSGREILKITSILECLAVITFVGGNDPEQTEKSMQIIWQMIHPKLGSNVVATKPSPAVISAVVSSWAFLLTTVDRWTLGPKIFQETVTYLSTLLEKDDRSVRIAAGEALAVIYELGTLEKFAAEVKGSANGSVKEGGVSQEALMHMHGLKAKVTKQVRELSVEAGGKGSAKKDLNTQRNLFKDLVEFLEDGYAPETSTKVGGDYLQTSTWYQMIQLNYLKHFLGGGFIKHMQENEFLHDVFSFTPKKIGGGKLSNDEKRLFKSPNSALNKARTQFLAKQRMLAKNMNVGHYAATAMEEE”: “soluble”.
“GFPSPAADYVEQRIDLNQLLIQHPSATYFVKASGDSMIDGGISDGDLLIVDSAITASHGDIVIAAVDGEFTVKKLQLRPTVQLIPMNSAYSPITISSEDTLDVFGVVIHVVKAATR”: the “soluble on expression in E. coli” value is given as “soluble”.
As for “MGSSHHHHHHGKTIFVIVPTNEEQVAFLEALAKQDELNFDWQNPPTEPGQPVVILIPSDMVEWFLEMLKAKGIPFTVYVEEGGSENLYFQGGGGGGTCMMGLEIRPKVVSFAQEKALALRQENAASLTQHYRNVWFEQMNVMKFGSNCFTKGQLSRLFFCYPDPHWKRKNIRRRIISPGLVQEYAYWLRHGGLVYTVSDVAELEEWMVQCLDDSPLFRRLAEAELCTPEHKQVLEIVTGASEDAQRTARKGLQKHFAVHMRI”, the “soluble on expression in E. coli” value is recorded as “not soluble”.
As to “MAHHHHHHMKPSQPSYDKRAYQTIYPQYLDAELTPHDGRRLTRTQAVDDPTTNEVVEALKELGYTDIFVEPSASFPRSQGSIKYIMPPKGCVKVAIKRPKGEHYIPKSDFDTQTRGVTVEDIPNKMELLRRVSALIKIQHALKKQAEAAAASQTANTRKK”, the “soluble on expression in E. coli” value is on record as “soluble”.
The same measure for “MHHHHHHSSGVDLGTENLYFQSMNNVEKPDNDEDESEVPSLPLGLTGAFEDTSFASLCNLVNENTLKAIKEMGFTNMTEIQHKSIRPLLEGRDLLAAAKTGSGKTLAFLIPAVELIVKLRFMPRNGTGVLILSPTRELAMQTFGVLKELMTHHVHTYGLIMGGSNRSAEAQKLGNGINIIVATPGRLLDHMQNTPGFMYKNLQCLVIDEADRILDVGFEEELKQIIKLLPTRRQTMLFSATQTRKVEDLARISLKKEPLYVG”: “soluble”.
“PLEDWPDDVLASLPRGISRHTVRFVNVDGHVFAIKEIGQKAAYHEYKMLRDLNRLGAPSVQPLAVITGRVDATGQPLTPALVTEHLSFSLPYRAVFSQTSVSRSMRPETATR”: the “soluble on expression in E. coli” value is listed as “not soluble”.
Take “MSLKITSIAVYQVDLPLREGNYAWSEGKSVSVFDSTVVRIETDSGIFGHGEVCPLGPVYLPAYAAGVRTGVAEIAPALIGDDPTELGKLNRKMDYLLKGHPYVKSALDVACWDIFGQAAGLPICTLLGGRYGEDFTLYRAISQRPAAEMAESVAMYRGEGYRRFQLKVGGDPNEDILRIFEAAEMLEPGDKLIADANTGWLKHEALRVVNAVRDVDVYIEQPCPSYEDCRAIRERTTLPFILDEVIDSVDMIVRCAADRAADVVNLKISKLGGLTKARQARDLCASLGLAMTIEDSWGGDIVTAAIAHLAHSTPTDYLFSSTDFNSYVTKSIADGAPQRDNGRLAAAREPGLGVKPKLDVLGKPVATYGKEGHHHHHH”: the “soluble on expression in E. coli” value was “soluble”.
Then “MGHHHHHHSHMDPDTFTFNFNNDPLVLRRRQTYLCYEVERLDNGWMVLMDQHMGFLCNEAKNLLCGFYGRHADWRFLDLVPSLQLDPAQIYRVTWFISWSPCFSWGCAGEVRAFLQENTHVRLPIFAARIYDYDPLYKEALQMLRDAGAQVSIMTYDEFEYCWDTFVYRQGCPFQPWDGLEEHSQALSGRLRAILQNQGN”, with “not soluble”; and “MGSDKIHHHHHHMMIKDLKAHYQLLYAQSGDSPAAVQYPTHDSQVVRFSILSHGIDKTCNIIDLGCGLADMLPYLRQNGFTGKYLGCDFVPEFIELAKGKYGEDLNAKFMEFNILQDEIPTGYDYVLISGIFNNKIKNNQEFIELALKESMAKVNIGVVFNALSDYVQYQDETLFYISPLSLFDYCKRNITPYVTLKHDYLTKPGGFPYEFTMSLRHKEAS”, with “not soluble”.
Turning to “MSLQNTVPSETPSPATPSPTSTVNLSDVSSDYWARPFIQAMADNNVIAGFPDGSFRPNQAVTRAEFAALIQKAFPNQNRVRQLSAGGFRDVPAGYWAISPIQYAYETGFLAGYPGNVFSPNQQIPKVQAIVAMTSGLGLTASNTGASTDLSTYYTDASSIPQYAIASVTTATQSNIVVNYPDVKQMNPQQPLTRAEVAALLYQALAKQGRVQPIASNLPASQYIVGGTEGHHHHHH”, the “soluble on expression in E. coli” value is given as “soluble”.
The same measure for “MGSSHHHHHHGKTIFVIVPTNEEQVAFLEALAKQDELNFDWQNPPTEPGQPVVILIPSDMVEWFLEMLKAKGIPFTVYVEEGGSENLYFQGGGGGGAQCVRRLVLAATLAAAVALLLCTSSAPVARAAGTGDFTAAQRTNTLAVLQAFGRAIPKLGEKWAGNDFCSWEAVLCNAPDVYVSGISPTYAGTLPEMPVNVDYRHVVIKQLDFSEMGPGLSGTLPASWHSMTSLESLSIEKCESISGSVPPEWGSMTSLSVLNLRGTGISGTLPPQWSGMSKARSLQLQDCDLSGSLPSSWSAIPMLASVSLKGNKFCGVCRTRGIRRLVLLWTSRTSTRAATAWLLRTAQRPPLSPPPRQRPPRTSLTFPLRRGPRLSRLPQPALRHRLNPQPPLRHRLNPRPLLPQQTRRLLHQRRSARWMGVRCARGTPLRGARGAVRTTS”: “not soluble”; for “GMSHVSYAEPPAQGWDIHCHTVFSDGTETPRTLVEQARKLGLHGVAIADHDTTAGWDEATEASEEIGLPLLLGTEITAVDEDVSVHMLAFQYDPSNEHISSMFANTRAARLRRTKRMVERLSQDFPITWDDVLAQVKEGERTTIGRPHIADALVAAGVYETRSDAFADAVSAKSKYYIPTPSPSTHEVIAAVKGAGGVVVAAHAGDPQRNRRLLSDEQLDAMIADGLDGLEVWHRGNPPEQRERLLTIAARHDLLVTGGSDWHGKGKPNGLGENLTDDDTVREILCRGVDLIGRVGSSHAA”: “soluble”; for “MHHHHHHGRIGIPRERLTNETRVAATPKTVEQLLKLGFTVAVESGAGQLASFDDKAFVQAGAEIVEGNSVWQSEIILKVNAPLDDEIALLNPGTTLVSFIWPAQNPELMQKLAERNVTVMAMDSVPRISRAQSLDALSSMANIAGYRAIVEAAHEFGRFFTGQITAAGKVPPAKVMVIGAGVAGLAAIGAANSLGAIVRAFDTRPEVKEQVQSMGAEFLELDFKEEAGSGDGYAKVMSDAFIKAEMELFAAQAKEVDIIVTTALIPGKPAPKLITREMVDSMKAGSVIVDLAAQNGGNCEYTVPGEIFTTENGVKVIGYTDLPGRLPTQSSQLYGTNLVNLLKLLCKEKDGNITVDFDDVVIRGVTVIRAGEITWPAPPIQVSAQPQAAQKAAPEVKTEEK”: “soluble”.
